Experimental data taken from the supplement of paper PMC10065799, “High-throughput profiling of sequence recognition by tyrosine kinases and SH2 domains using bacterial peptide display” (eLife, 2023).

Experiments:
c-Src SH2 = assay: SH2 binding enrichment of the phosphorylated peptide, bacterial display (enrichment ratio); higher = better substrate or ligand; peptides without Tyr show the background
SHP2-C SH2 = assay: as above
Grb2 SH2 = Grb2 SH2 (UniProt P62993); assay: as above
c-Abl (mouse) = assay: phosphorylation enrichment, bacterial display (enrichment ratio); higher = better substrate or ligand; peptides without Tyr show the background
Jak2 = Jak2 (UniProt O60674); assay: as above
c-Src = assay: as above
FGFR3 = FGFR3 (UniProt P22607); assay: as above
FGFR1 = FGFR1 (UniProt P11362); assay: as above
Fyn = Fyn (UniProt P06241); assay: as above
Fes = Fes (UniProt P07332); assay: as above
Fer (mouse) = assay: as above
Hck = Hck (UniProt P08631); assay: as above
MERTK = MERTK (UniProt Q12866); assay: as above
EPHB2 = EPHB2 (UniProt P29323); assay: as above
AncSZ = assay: as above
EPHB1 = EPHB1 (UniProt P54762); assay: as above
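Wherever SH2 binding enrichment of the phosphorylated peptide, bacterial display is given: peptide library displayed on the E. coli surface as eCPX fusions, selected cells deep-sequenced, score is each peptide's frequency after selection divided by its frequency in the input.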
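Wherever phosphorylation enrichment, bacterial display is given: 11-residue human phosphosite peptides and single-mutation variants displayed on the E. coli surface, counted by deep sequencing, each peptide's frequency after selection divided by its frequency in the unselected input library; frequency after pTyr selection over input frequency; kinase dosed for 20-30% of maximal phosphorylation in three min.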

Chain of EPHB2 (P29323 whole entry, looked up): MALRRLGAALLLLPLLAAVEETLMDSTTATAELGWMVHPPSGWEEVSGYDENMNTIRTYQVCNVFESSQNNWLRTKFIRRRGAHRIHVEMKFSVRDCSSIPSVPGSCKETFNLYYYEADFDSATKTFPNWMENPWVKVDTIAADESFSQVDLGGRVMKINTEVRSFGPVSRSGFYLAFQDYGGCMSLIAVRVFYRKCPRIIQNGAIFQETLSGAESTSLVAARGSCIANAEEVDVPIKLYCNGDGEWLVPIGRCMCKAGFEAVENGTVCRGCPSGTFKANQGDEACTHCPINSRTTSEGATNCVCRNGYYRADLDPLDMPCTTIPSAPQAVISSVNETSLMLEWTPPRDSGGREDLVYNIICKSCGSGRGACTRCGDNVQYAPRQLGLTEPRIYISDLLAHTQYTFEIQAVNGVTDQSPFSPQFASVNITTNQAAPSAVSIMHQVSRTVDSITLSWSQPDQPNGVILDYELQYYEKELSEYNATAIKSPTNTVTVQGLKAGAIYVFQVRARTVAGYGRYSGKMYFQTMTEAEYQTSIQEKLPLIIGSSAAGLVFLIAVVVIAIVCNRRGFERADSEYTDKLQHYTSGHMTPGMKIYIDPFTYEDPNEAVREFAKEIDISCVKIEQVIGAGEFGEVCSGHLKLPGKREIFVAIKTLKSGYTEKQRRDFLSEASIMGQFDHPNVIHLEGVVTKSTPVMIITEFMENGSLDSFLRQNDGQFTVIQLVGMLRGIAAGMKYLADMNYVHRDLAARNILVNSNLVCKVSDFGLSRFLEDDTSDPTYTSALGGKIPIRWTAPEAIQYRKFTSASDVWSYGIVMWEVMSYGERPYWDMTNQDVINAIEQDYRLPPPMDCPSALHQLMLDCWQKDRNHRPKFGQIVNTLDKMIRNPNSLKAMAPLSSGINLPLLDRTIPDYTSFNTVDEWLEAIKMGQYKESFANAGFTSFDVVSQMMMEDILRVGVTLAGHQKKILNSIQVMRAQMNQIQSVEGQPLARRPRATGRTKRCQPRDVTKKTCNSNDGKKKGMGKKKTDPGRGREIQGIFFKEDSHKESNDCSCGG
Chain of FGFR3 (P22607 whole entry, looked up): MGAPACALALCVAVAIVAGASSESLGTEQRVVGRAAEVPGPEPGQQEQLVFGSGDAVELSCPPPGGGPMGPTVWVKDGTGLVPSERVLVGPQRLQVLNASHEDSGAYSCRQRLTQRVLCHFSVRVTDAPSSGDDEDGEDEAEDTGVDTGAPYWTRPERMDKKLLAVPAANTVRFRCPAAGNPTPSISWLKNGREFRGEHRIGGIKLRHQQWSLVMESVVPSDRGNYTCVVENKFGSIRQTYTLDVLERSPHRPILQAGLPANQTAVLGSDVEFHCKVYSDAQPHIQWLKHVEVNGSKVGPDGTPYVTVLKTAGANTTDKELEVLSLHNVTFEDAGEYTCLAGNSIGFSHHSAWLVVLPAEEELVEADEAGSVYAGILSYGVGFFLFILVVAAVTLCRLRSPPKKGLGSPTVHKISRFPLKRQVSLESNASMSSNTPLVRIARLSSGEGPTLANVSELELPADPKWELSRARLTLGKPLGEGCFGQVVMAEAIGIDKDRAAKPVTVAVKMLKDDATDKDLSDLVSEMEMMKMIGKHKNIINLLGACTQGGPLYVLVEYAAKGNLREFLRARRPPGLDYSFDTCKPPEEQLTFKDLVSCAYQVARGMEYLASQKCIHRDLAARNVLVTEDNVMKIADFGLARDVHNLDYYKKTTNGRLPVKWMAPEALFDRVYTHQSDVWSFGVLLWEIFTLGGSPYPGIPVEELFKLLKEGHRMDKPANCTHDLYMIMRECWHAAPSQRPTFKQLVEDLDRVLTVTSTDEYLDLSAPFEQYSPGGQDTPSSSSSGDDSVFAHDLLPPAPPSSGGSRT
Chain of Hck (P08631 whole entry, looked up): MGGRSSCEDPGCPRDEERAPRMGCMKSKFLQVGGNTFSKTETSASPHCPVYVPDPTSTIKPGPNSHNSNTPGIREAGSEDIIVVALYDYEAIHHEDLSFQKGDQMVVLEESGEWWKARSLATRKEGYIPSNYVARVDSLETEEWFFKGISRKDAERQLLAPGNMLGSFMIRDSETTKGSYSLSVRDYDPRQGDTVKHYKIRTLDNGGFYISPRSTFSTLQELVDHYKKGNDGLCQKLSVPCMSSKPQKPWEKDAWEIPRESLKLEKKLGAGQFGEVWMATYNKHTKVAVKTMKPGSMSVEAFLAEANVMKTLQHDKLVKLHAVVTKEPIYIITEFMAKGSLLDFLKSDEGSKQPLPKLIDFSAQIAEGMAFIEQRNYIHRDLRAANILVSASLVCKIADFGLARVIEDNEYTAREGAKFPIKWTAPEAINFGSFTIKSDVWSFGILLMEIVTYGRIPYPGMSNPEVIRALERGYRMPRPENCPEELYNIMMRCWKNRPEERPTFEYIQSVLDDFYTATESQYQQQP
Chain of FGFR1 (P11362 whole entry, looked up): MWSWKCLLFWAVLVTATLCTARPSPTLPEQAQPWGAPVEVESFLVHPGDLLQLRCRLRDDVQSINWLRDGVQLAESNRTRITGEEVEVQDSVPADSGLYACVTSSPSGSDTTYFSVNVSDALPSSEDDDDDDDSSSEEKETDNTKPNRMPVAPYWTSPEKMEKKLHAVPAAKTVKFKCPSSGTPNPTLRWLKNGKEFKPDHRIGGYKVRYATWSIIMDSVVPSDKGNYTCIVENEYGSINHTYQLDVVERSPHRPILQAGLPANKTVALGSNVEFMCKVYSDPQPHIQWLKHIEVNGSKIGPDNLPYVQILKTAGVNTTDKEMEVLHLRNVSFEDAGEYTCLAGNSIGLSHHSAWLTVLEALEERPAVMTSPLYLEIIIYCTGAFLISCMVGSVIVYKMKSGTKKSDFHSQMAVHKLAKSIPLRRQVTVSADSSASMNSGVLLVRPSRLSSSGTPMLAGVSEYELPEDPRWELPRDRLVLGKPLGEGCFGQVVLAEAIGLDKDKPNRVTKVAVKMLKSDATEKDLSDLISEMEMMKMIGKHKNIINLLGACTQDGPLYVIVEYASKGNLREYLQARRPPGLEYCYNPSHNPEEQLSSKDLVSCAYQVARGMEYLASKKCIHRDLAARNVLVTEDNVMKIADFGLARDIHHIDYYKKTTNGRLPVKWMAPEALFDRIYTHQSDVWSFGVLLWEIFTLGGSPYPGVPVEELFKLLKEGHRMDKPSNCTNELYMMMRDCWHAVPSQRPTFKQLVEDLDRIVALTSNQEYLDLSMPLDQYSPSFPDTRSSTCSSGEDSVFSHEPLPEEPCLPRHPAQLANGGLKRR
Chain of Fes (P07332 whole entry, looked up): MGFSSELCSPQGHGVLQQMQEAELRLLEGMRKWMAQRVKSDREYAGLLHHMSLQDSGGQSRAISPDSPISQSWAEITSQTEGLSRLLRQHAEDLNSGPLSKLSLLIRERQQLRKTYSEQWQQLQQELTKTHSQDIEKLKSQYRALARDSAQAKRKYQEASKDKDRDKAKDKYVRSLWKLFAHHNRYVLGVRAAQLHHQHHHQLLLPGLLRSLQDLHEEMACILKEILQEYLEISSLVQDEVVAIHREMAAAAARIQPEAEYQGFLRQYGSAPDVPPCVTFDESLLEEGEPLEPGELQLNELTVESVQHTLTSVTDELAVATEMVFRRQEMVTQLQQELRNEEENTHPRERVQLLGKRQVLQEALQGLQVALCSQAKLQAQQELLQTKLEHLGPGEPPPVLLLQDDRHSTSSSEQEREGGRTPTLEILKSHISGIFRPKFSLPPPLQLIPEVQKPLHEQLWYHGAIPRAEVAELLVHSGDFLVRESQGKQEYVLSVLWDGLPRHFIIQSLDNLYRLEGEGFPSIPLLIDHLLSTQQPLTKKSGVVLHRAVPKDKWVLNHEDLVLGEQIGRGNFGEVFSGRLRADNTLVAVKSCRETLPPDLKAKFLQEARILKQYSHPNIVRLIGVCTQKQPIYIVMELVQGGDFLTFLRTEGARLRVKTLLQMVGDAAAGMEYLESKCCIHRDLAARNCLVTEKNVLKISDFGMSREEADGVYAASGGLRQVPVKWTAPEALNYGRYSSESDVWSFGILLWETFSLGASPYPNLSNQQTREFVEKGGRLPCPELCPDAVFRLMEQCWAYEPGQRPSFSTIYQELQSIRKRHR
Chain of EPHB1 (P54762 whole entry, looked up, the tested form may be a part): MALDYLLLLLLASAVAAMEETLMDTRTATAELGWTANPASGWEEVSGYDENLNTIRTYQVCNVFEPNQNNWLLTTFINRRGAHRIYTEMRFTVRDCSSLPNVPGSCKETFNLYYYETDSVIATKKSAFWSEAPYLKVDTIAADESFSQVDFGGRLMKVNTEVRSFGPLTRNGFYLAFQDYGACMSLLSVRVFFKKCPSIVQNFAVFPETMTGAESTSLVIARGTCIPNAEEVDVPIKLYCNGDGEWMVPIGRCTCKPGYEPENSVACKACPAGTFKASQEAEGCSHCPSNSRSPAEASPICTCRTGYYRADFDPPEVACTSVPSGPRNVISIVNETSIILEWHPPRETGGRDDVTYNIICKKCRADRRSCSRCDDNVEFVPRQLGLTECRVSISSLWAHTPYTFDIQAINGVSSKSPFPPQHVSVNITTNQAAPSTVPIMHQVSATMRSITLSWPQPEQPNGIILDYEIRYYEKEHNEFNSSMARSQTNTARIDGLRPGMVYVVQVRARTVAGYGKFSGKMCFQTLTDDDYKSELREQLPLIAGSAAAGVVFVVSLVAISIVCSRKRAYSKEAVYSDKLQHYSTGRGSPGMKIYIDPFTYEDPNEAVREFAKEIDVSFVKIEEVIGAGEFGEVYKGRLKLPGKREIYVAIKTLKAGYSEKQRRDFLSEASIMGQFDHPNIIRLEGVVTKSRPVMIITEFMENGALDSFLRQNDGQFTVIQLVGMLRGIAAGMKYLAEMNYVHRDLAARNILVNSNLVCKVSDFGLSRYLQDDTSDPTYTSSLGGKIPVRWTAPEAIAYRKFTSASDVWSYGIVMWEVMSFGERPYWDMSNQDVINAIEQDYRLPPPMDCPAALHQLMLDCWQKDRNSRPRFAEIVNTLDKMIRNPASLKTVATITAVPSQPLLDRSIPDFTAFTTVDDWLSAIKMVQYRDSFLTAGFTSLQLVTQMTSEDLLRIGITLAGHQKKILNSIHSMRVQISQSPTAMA

Sequence	SH2 binding enrichment (c-Src SH2)	SH2 binding enrichment (SHP2-C SH2)	SH2 binding enrichment (Grb2 SH2)	phosphorylation enrichment (c-Abl (mouse))	phosphorylation enrichment (Jak2)	phosphorylation enrichment (c-Src)	phosphorylation enrichment (FGFR3)	phosphorylation enrichment (FGFR1)	phosphorylation enrichment (Fyn)	phosphorylation enrichment (Fes)	phosphorylation enrichment (Fer (mouse))	phosphorylation enrichment (Hck)	phosphorylation enrichment (MERTK)	phosphorylation enrichment (EPHB2)	phosphorylation enrichment (AncSZ)	phosphorylation enrichment (EPHB1)
AFGNLYGSRKQ [YIPF7_Y59_YF]	0.35	0.376	0.788	0.657	0.505	1.09	0.398	0.397	0.718	0.55	0.409	2.93	0.519	0.531	0.526	0.357
QPGTDYKIFRF [FN1_Y1970_L1974R_YF]	0.497	0.635	0.644	1.74	1.64	1.89	1.28	1.22	0.529	2.04	0.756	1.18	1.17	0.567	1.77	0.754
DPADRYLTEQC [CDKL5_Y286]	0.507	0.747	0.918	0.713	0.947	0.523	0.731	0.458	0.478	1.12	0.53	0.506	0.446	0.558	0.986	0.485
ACQGKYTPSSQ [ALDOA_Y343_G347S]	0.553	0.887	0.928	0.392	0.421	0.449	0.466	0.362	0.433	0.579	0.425	0.417	0.404	0.389	0.542	0.346
TINPIYEHVGF [CHN1_Y143_YF]	0.518	0.69	0.83	12.5	1.18	9.42	0.802	0.739	12.6	9.52	18.2	11.6	11.7	23.4	1.02	19.7
FSQQTYFPVSN [ABCD1_Y180_R182P_YF]	0.599	0.811	0.647	0.723	5.51	1.95	3.8	4.99	0.889	1.01	0.494	2.5	3.42	0.908	1.1	0.946
VAFVFYKSIGP [ADGRL4_Y302_YF]	0.553	0.874	0.897	1.04	0.868	0.407	0.781	0.543	0.501	1.39	0.595	0.424	0.422	0.571	1.2	0.663
ESDYPYSSSYE [SRPK2_Y427_T426P]	0.829	0.395	0.832	0.481	0.71	0.784	0.789	0.668	0.593	1.18	0.499	0.581	0.513	0.649	1.19	0.589
DISEPYKVFRI [IRF8_Y107_YF]	0.42	0.497	0.826	1	0.78	0.628	0.618	0.552	0.628	1.17	0.565	0.563	0.582	0.529	1.11	0.543
KFLENYFDLEK [MMP3_Y41_K45E_YF]	0.741	1.06	0.991	0.844	1.39	0.502	2.14	3.77	0.467	1.23	0.439	0.487	0.46	0.878	1.39	2.5
IDAVCYYRMEN [NPHS2_Y194_I192V]	0.421	0.49	0.661	1.22	4.36	2.48	3.39	3.5	0.888	1.51	0.729	0.862	0.845	0.745	1.96	0.865
NGRTGDVLQPE [PLCG2_Y1036_Y1036D]	0.347	0.526	0.579	0.777	0.903	0.428	0.669	0.404	0.39	1.05	0.464	0.496	0.454	0.468	0.971	0.598
QLHEHCKIHKE [NSMAF_Y626_Y626C]	0.945	1.15	1.37	0.728	0.666	0.724	0.651	0.745	0.633	0.612	0.522	0.649	0.629	0.422	0.682	0.343
ANQDDHISFRH [IMP4_Y226_Y226H]	0.502	0.512	1.02	0.912	0.833	0.611	0.535	0.456	0.419	0.903	0.416	0.501	0.453	0.497	0.852	0.518
RGYRVYYTPDS [PTPRF_Y450]	5.05	1.27	0.707	1.3	1.93	0.947	0.634	0.784	0.979	1.07	1.11	1.37	3.59	1.04	1.22	1.24
SRGLAYPARSA [LEMD2_Y122_P126S]	0.552	0.596	0.723	0.382	0.312	0.431	0.275	0.288	0.316	0.529	0.381	0.25	0.35	0.334	0.501	0.244
